Assay results published in US20220056141A1 (DEUTSCHES KREBSFORSCHUNGSZENTRUM STIFTUNG DES OFFENTLICHEN …, published 2022).
Substitutions are numbered along the chain they refer to.

B1: bispecific FLT3xCD3 IgGsc antibody V2-V6 (CC-2 variant 2) (bispecific antibody)
heavy: QVQLVQSGAEVKKPGGSLRLSCAASGYTFTSYWMHWVRQAPGQGLEWIGEIDPSDSYTDYAQKFKDRVTISRDTSKNTLYLQLSSLRAEDTAVYYCARAITTTPFDFWGQGTLVTVSSASTKGPSVFPLAPSSKSTSGGTAALGCLVKDYFPEPVTVSWNSGALTSGVHTFPAVLQSSGLYSLSSVVTVPSSSLGTQTYICNVNHKPSNTKVDKKVEPKSCDKTHTCPPCPAPPVAGPSVFLFPPKPKDTLMISRTPEVTCVVVGVSHEDPEVKFNWYVDGVEVHNAKTKPREEQYNSTYRVVSVLTVLHQDWLNGKEYKCKVSNKQLPSPIEKTISKAKGQPREPQVYTLPPSRDELTKNQVSLTCLVKGFYPSDIAVEWESNGQPENNYKTTPPVLDSDGSFFLYSKLTVDKSRWQQGNVFSCSVMHEALHNHYTQKSLSLSPGKSGDIQMTQSPSSLSASVGDRVTITCRASQDIRNYLNWYQQKPGKAPKLLIYYTSRLESGVPSRFSGSGSGTDYTLTISSLQPEDFATYYCQQGNTLPWTFGQGTKVEIKGGGGSGGGGSGGGGSEVQLVESGGGLVQPGGSLRLSCAASGYSFTGYTMNWVRQAPGKGLEWVALINPYKGVSTYNQKFKDRFTISVDKSKNTAYLQMNSLRAEDTAVYYCARSGYYGDSDWYFDVWGQGTLVTVSS
light: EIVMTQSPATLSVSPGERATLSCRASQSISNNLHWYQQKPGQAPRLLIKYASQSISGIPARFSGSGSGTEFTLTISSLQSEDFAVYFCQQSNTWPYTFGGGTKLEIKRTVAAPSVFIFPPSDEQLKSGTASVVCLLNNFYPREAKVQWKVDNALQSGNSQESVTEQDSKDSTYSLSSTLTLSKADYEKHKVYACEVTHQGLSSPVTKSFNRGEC
notes: Fc-attenuated IgGsc format; also called Version 2; CC-2 V2
B2: bispecific FLT3xCD3 IgGsc antibody V1-V6 (CC-2 variant 1) (bispecific antibody)
heavy: B1 heavy
light: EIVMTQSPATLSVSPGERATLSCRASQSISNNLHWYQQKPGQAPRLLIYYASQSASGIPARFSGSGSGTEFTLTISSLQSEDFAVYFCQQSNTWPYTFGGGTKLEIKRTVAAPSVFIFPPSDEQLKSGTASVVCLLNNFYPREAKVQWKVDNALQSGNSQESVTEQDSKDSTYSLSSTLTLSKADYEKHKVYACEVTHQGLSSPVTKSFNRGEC
notes: Fc-attenuated IgGsc format: VH-CH1-CH2mod-CH3-scFv(UCHT1 V6) heavy chain and VL-CL light chain; also called Version 1; CC-2 V1
B3: bispecific FLT3xCD3 IgGsc antibody V5-V6 (CC-2 variant 5) (bispecific antibody)
heavy: B1 heavy with T58K, A61N
light: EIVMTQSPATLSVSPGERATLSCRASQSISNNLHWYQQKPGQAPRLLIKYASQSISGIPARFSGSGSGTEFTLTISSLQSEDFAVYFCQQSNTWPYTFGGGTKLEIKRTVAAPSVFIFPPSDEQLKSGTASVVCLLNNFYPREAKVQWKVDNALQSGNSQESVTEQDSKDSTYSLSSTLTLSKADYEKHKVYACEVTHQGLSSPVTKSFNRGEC
notes: Fc-attenuated IgGsc format; also called Version 5; CC-2 V5
B4: bispecific FLT3xCD3 IgGsc antibody V3-V6 (CC-2 variant 3) (bispecific antibody)
heavy: QVQLVQSGAEVKKPGASVKVSCKASGYTFTSYWMHWVRQAPGQGLEWIGEIDPSDSYKDYNQKFKDRVTMTRDTSTSTVYMELSSLRSEDTAVYYCARAITTTPFDFWGQGTTVTVSSASTKGPSVFPLAPSSKSTSGGTAALGCLVKDYFPEPVTVSWNSGALTSGVHTFPAVLQSSGLYSLSSVVTVPSSSLGTQTYICNVNHKPSNTKVDKKVEPKSCDKTHTCPPCPAPPVAGPSVFLFPPKPKDTLMISRTPEVTCVVVGVSHEDPEVKFNWYVDGVEVHNAKTKPREEQYNSTYRVVSVLTVLHQDWLNGKEYKCKVSNKQLPSPIEKTISKAKGQPREPQVYTLPPSRDELTKNQVSLTCLVKGFYPSDIAVEWESNGQPENNYKTTPPVLDSDGSFFLYSKLTVDKSRWQQGNVFSCSVMHEALHNHYTQKSLSLSPGKSGDIQMTQSPSSLSASVGDRVTITCRASQDIRNYLNWYQQKPGKAPKLLIYYTSRLESGVPSRFSGSGSGTDYTLTISSLQPEDFATYYCQQGNTLPWTFGQGTKVEIKGGGGSGGGGSGGGGSEVQLVESGGGLVQPGGSLRLSCAASGYSFTGYTMNWVRQAPGKGLEWVALINPYKGVSTYNQKFKDRFTISVDKSKNTAYLQMNSLRAEDTAVYYCARSGYYGDSDWYFDVWGQGTLVTVSS
light: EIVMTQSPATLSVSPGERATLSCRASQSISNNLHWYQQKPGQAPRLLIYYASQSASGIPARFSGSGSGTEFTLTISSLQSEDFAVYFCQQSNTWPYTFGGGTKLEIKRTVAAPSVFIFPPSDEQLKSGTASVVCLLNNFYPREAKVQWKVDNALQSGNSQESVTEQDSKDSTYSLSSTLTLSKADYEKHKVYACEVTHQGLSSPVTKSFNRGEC
notes: Fc-attenuated IgGsc format; also called Version 3; CC-2 V3
B5: bispecific FLT3xCD3 IgGsc antibody V4-V6 (CC-2 variant 4) (bispecific antibody)
heavy: B4 heavy
light: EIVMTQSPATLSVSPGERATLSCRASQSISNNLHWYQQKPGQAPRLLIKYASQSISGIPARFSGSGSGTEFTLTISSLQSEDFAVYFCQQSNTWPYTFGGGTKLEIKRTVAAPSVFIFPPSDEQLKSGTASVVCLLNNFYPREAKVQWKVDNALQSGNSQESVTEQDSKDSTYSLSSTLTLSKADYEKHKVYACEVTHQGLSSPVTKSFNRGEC
notes: Fc-attenuated IgGsc format; also called Version 4; CC-2 V4
B6: bispecific FLT3xCD3 IgGsc antibody V6-V8 (bispecific antibody)
heavy: QVQLQQPGAELVKPGASLKLSCKSSGYTFTSYWMHWVRQRPGHGLEWIGEIDPSDSYKDYNQKFKDKATLTVDRSSNTAYMHLSSLTSDDSAVYYCARAITTTPFDFWGQGTTLTVSSASTKGPSVFPLAPSSKSTSGGTAALGCLVKDYFPEPVTVSWNSGALTSGVHTFPAVLQSSGLYSLSSVVTVPSSSLGTQTYICNVNHKPSNTKVDKKVEPKSCDKTHTCPPCPAPPVAGPSVFLFPPKPKDTLMISRTPEVTCVVVGVSHEDPEVKFNWYVDGVEVHNAKTKPREEQYNSTYRVVSVLTVLHQDWLNGKEYKCKVSNKQLPSPIEKTISKAKGQPREPQVYTLPPSRDELTKNQVSLTCLVKGFYPSDIAVEWESNGQPENNYKTTPPVLDSDGSFFLYSKLTVDKSRWQQGNVFSCSVMHEALHNHYTQKSLSLSPGKSGDIQMTQSPSSLSASVGDRVTITCRASQDIRNYLNWYQQKPGKAPKLLIYYTSRLESGVPSRFSGSGSGTDYTLTISSLQPEDFATYYCQQGNTLPWTFGQGTKVEIKGGGGSGGGGSGGGGSEVQLVESGGGLVQPGGSLRLSCAASGYSFTGYTMNWVRQAPGKGLEWVALINPYKGVSTYNQKFKDRFTISVDDSKNTAYLQMNSLRAEDTAVYYCARSGYYGDSDWYFDVWGQGTLVTVSS
light: DIVLTQSPATLSVTPGDSVSLSCRASQSISNNLHWYQQKSHESPRLLIKYASQSISGIPSRFSGSGSGTDFTLSINSVETEDFGVYFCQQSNTWPYTFGGGTKLEIKRTVAAPSVFIFPPSDEQLKSGTASVVCLLNNFYPREAKVQWKVDNALQSGNSQESVTEQDSKDSTYSLSSTLTLSKADYEKHKVYACEVTHQGLSSPVTKSFNRGEC
notes: Fc-attenuated IgGsc format; also called CC-2 V8
B7: bispecific FLT3xCD3 IgGsc antibody V6-V7 (bispecific antibody)
heavy: B6 heavy with N632A, Q633D, K634S, D637G
light: B6 light
notes: Fc-attenuated IgGsc format; also called CC-2 V7

molecular target: T1, His tagged, recombinant FLT3 protein (Sino Biologicals) (human, UniProt P36888 27-541, limits assumed); test: SPR (Biacore X); antibody captured on protein A chip, His-tagged recombinant FLT3 in solution
T1 construct: Bought protein; also called soluble recombinant FLT3 protein; not shown: His tag
T1 sequence (looked up): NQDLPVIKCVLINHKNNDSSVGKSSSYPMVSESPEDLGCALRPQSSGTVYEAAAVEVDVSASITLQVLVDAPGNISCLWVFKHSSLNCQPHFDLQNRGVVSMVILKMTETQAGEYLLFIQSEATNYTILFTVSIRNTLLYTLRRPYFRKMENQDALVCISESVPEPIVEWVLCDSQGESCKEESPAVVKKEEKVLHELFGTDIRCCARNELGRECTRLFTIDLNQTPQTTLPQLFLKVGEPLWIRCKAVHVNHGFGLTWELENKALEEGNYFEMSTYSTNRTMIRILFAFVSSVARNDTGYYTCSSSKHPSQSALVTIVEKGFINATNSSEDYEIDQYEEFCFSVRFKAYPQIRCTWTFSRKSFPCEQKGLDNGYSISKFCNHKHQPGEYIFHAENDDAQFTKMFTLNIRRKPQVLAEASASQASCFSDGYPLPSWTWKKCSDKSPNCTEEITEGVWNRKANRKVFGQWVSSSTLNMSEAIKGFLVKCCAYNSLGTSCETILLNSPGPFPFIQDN
Experimental: FIG. 3 depicts binding of different CC-2 variants to soluble recombinant FLT3 protein. Respective antibody variants were immobilized to a Biacore chip coated with protein A and binding of His tagged, recombinant FLT3 protein (Sino Biologicals) was determined using a Biacore X instrument (GE Healthcare). Shown are the results of various mutated variants of the FLT3 antigen binding domain (V1 to V5).
In FIG. 3 the binding of different FLT3 binding domain variants V1 to V5 as indicated above was tested for their dissociation constant using a soluble recombinant FLT3 protein. Respective antibody variants were immobilized to a Biacore chip coated with protein A and binding of His tagged, recombinant FLT3 protein (Sino Biologicals) was determined using a Biacore X instrument (GE Healthcare).

Row | Binder | Kd | koff | kon
1 | B1 | 88 µM | 0.0318 s⁻¹ | 540 M⁻¹ s⁻¹
2 | B2 | 63 µM | 0.022 s⁻¹ | 489 M⁻¹ s⁻¹
3 | B3 | 0.16 µM | 0.00449 s⁻¹ | 29600 M⁻¹ s⁻¹
4 | B4 | 87 µM | 0.0233 s⁻¹ | 276 M⁻¹ s⁻¹
5 | B5 | 0.48 µM | 0.00887 s⁻¹ | 18800 M⁻¹ s⁻¹

molecular target: T2, FLT3 on Nalm16 cells (human, UniProt P36888 27-993); test: flow cytometry (row 'EC50, FACS binding' under the bars; binding to NALM16 cells of FIG. 4)
T2 construct: whole, on cells; Endogenous FLT3 of the NALM16 leukemia cell line; also called NALM16 (FLT3+); NALM-16 cells expressing FLT3
T2 sequence (looked up): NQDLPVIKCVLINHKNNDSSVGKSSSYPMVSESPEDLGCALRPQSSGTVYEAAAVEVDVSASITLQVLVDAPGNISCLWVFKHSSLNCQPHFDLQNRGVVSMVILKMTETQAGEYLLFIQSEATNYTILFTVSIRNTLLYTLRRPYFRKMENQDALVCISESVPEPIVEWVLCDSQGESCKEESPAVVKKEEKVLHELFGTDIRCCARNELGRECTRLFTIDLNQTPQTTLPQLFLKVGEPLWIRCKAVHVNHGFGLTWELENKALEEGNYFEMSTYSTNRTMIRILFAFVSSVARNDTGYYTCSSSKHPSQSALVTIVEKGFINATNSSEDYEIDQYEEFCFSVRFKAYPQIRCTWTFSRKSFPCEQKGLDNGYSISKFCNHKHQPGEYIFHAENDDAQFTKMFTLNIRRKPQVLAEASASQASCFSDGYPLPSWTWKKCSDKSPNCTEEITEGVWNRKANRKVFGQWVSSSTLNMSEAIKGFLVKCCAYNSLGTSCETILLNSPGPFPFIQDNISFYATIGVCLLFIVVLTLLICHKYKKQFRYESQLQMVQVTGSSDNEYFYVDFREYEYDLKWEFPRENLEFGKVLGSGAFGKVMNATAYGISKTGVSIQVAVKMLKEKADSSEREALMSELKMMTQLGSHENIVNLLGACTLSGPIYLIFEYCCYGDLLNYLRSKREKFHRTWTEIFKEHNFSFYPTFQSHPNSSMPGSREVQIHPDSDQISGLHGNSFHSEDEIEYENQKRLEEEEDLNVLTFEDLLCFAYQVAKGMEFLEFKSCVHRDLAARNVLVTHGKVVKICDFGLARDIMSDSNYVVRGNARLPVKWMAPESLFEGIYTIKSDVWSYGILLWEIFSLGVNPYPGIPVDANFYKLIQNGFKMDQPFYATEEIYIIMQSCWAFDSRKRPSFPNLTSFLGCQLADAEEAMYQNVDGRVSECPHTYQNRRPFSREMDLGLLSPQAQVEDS
Experimental: (§1) In addition, antibody binding affinity was also tested using binding of the antibody to its target(s) as expressed on cells. Analyzed is the binding of CC-2 variants to Nalm16 cells expressing FLT3 (FIG. 4) or Jurkat cells expressing CD3 (FIG. 6). Variants V1 to V9 (with V6 being V6-V6) were produced after transient transfection of CHO cells using the insert sequences listed above. The antibodies were purified by protein A affinity- and size exclusion-chromatography. […] To measure antibody binding to FLT3 and CD3 NALM16 (FLT3+) and Jurkat (CD3+) cells were incubated with the respective variants for 30 min, washed, stained with a goat anti human Fcγ-specific and PE-conjugated secondary antibody (Jackson Immuno Research), washed again and analyzed by flow cytometry (FACSCalibur, BD Biosciences).

Row | Binder | EC50
6 | B1 | 0.01 µM
7 | B2 | > 0.01 µM
8 | B3 | 0.0013 µM
9 | B4 | 0.008 µM
10 | B5 | 0.005 µM

molecular target: T3, CD3 on Jurkat cells (human, UniProt P07766 23-207); test: flow cytometry (value under the bar; by the legend the EC50 of the binding to Jurkat cells of FIG. 6)
T3 construct: whole, on cells; also called Jurkat (CD3+); human cluster of differentiation 3 (CD3) antigen
T3 sequence (P07766 23-207): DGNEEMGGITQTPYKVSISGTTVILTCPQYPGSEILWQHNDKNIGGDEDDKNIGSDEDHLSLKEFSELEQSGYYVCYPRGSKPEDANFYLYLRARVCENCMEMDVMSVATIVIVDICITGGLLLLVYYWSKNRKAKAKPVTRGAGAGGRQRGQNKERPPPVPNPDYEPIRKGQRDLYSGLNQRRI
Experimental: as §1

Row | Binder | EC50
11 | B6 | 0.092 µM
12 | B7 | 0.496 µM

molecular target: T2, FLT3 on Nalm16 cells; test: flow cytometry on NALM16 cells (FLT3+), 30 min incubation, PE-conjugated goat anti-human Fc-gamma secondary antibody
Experimental: as §1

Row | Binder | EC50 (read off the curve)
13 | B3 | ~0.001 µM
14 | B4 | ~0.008 µM
15 | B5 | ~0.005 µM
